Results: article PMC9320857, “Protocellular CRISPR/Cas‐Based Diffusive Communication Using Transcriptional RNA Signaling”

Molecular target: T7 RNA polymerase (UniProt P00573 1-883)
Assay: confocal localization to immobilized DNA; 500 nM Cy5-T7 RNAP, 0.5 h, 37 C; target in proteinosomes; reaction buffer (composition not in the material; NEB buffer 3.1 mentioned), 37 C; DNA localization in 10 mM Tris pH 8.0, 12 mM Mg, 0.1% Tween 20
Conditions: protein: commercial; tags: Cy5 label; label: Cy3 5' on NTMG; biotin on TMG; NTMG 5' overhang 27 nt (incomplete T7 promoter)

Sequence of T7 RNA polymerase (P00573 whole entry): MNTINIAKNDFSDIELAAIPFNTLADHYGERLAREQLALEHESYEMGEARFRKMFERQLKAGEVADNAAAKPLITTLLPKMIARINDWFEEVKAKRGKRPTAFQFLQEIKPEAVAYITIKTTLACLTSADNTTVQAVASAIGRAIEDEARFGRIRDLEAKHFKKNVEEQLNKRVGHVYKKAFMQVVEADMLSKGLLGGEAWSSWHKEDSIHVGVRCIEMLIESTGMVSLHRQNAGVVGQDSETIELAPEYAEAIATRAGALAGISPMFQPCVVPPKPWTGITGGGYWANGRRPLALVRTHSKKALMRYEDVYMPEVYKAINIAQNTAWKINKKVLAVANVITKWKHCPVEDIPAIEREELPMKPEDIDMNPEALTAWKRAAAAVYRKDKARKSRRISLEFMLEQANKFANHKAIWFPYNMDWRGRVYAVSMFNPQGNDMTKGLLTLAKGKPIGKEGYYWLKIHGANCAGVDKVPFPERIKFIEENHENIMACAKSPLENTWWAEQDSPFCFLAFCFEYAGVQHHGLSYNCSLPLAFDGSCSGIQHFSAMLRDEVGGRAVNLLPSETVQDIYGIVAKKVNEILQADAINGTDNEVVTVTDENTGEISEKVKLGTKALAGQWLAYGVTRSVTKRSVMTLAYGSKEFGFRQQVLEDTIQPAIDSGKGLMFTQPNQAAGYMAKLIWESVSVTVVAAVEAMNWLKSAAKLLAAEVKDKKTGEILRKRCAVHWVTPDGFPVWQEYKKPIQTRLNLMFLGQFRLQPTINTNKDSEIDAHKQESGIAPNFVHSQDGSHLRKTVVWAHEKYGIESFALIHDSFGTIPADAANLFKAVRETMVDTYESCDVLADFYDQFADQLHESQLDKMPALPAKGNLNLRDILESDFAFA

B1: MG genelet TMG/NTMG (dsDNA)
DNA 1: CATTAGTGTCGTTCGTTCACAGTAATACGACTCACTATAGGGATCCCGACTGGCGAGAGCCAGGTAACGAATGGATC
DNA 2: GATCCATTCGTTACCTGGCTCTCGCCAGTCGGGATCCCTATAGTGAGTCG
- binding result: binds
